{"source": "patent US8987192B2", "about": "“Potent and selective mediators of cholesterol efflux” (The Regents of the University of California, priority 2006, dated 2015)", "target": "ABCA1 (Mus musculus, UniProt P41233)", "sequence (P41233 whole entry)": "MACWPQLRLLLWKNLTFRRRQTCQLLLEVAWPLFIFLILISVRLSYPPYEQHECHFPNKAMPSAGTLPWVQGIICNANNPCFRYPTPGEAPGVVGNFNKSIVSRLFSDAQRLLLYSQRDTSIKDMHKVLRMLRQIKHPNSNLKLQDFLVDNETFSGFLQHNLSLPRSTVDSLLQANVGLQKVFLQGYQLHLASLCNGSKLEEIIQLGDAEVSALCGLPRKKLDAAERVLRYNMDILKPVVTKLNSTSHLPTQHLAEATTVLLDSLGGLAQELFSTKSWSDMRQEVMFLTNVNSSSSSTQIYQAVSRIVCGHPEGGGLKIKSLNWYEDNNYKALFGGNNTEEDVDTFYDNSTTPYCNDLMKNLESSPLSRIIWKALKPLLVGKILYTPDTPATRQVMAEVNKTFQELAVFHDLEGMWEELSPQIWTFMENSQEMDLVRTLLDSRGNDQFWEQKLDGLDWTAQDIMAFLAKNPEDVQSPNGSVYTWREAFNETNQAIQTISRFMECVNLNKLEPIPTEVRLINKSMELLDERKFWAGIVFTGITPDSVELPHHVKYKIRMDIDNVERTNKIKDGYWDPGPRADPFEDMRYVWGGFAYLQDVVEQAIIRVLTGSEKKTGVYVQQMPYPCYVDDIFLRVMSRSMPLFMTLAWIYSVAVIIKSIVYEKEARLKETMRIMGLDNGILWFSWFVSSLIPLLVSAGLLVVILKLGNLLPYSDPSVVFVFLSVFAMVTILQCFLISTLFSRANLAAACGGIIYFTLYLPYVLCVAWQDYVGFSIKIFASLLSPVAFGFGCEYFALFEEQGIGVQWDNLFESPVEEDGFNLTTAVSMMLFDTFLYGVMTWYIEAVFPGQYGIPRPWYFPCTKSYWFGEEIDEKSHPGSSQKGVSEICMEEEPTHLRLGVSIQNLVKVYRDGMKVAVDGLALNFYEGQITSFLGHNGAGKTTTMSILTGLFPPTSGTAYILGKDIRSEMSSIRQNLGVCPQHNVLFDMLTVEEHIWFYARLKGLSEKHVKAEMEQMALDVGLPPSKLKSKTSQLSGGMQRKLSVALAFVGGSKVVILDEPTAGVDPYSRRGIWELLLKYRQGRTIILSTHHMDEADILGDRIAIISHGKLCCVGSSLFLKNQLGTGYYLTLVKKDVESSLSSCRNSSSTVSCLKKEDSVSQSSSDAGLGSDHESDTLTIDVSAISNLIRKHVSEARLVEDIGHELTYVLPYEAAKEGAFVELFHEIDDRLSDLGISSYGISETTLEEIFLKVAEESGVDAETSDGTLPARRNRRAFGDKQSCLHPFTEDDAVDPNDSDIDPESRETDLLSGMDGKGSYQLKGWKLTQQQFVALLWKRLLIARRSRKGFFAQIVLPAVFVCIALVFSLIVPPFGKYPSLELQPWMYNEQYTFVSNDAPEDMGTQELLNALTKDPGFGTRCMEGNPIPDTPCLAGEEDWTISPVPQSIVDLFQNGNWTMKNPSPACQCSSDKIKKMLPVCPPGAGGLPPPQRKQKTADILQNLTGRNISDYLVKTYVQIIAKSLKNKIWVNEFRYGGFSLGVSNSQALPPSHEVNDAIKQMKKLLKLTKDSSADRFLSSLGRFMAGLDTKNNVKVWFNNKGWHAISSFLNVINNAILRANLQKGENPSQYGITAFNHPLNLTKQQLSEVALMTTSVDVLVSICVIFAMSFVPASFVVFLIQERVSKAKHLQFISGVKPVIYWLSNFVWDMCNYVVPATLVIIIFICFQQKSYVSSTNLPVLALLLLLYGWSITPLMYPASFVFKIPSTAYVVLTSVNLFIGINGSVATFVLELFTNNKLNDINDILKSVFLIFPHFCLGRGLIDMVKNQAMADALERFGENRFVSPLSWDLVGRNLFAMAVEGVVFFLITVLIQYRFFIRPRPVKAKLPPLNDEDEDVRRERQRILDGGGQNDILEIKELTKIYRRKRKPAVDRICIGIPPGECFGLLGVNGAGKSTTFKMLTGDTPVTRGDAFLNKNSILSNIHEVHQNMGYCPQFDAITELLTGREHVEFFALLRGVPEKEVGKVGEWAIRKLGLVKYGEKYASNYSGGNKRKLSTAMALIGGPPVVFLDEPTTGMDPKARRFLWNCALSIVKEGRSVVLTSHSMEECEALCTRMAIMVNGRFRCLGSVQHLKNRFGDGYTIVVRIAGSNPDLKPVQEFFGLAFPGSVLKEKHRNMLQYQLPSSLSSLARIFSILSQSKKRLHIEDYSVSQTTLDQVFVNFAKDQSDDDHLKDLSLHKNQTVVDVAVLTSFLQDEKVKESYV", "assay": "Cholesterol efflux from [3H]cholesterol-labeled ABCA1-expressing J774 mouse macrophages", "assay_type": "cell-based", "design": "to upregulate cellular ABCA1 protein; endogenous in cells; host or cells: J774 mouse macrophages", "conditions": "for capacity to stimulate cholesterol efflux at 3 μg/ml: 3 μg/ml lipid-free peptide, ABCA1-expressing macrophages; for ABCA1-dependent cholesterol efflux: macrophages with vs without cAMP; for cholesterol efflux from macrophages not induced for ABCA1 (non-specific): no cAMP; for ABCA1-dependent cholesterol efflux at 30 μg/ml: 30 μg/ml peptide; for efficiency of ABCA1 cholesterol efflux (concentration dependence): concentration dependence curves", "experimental": "In some embodiments, a polypeptide known to mediate cholesterol efflux (e.g., helix 9/10 of Apo A-I) is used to screen for additional mediators of cholesterol efflux in a cell based assay. For example, cell lines in which cholesterol efflux can be enhanced using a cAMP analog that up-regulates ABCA1 protein expression (e.g., J774 macrophages) can conveniently be used to assess the ability of a polypeptide of the present invention to mediate cholesterol efflux. The cells are incubated with labeled cholesterol (e.g., [^3H]cholesterol) under conditions appropriate for cholesterol uptake by the cells. Thus, cAMP or cAMP analogs (e.g., CPT-cAMP) are incubated with the cells for a suitable time before the initiation of cellular cholesterol efflux, i.e., prior to contacting the cells with a test polypeptide. Measurement of labeled cholesterol appearing in the medium is used to determine the cholesterol efflux mediating activity of the test polypeptide.\nJ774 mouse macrophages labeled with [^3H]cholesterol were treated (20 h) with 22-hydroxycholesterol (10 μM)/cis-retinoic acid (10 μM) to upregulate cellular ABCA1 protein.\nMouse macrophages were labeled with [^3H]cholesterol and treated with a cAMP analog to induce ABCA1 expression. […] Km values were calculated using the Michaelis-Menton equation and GraphPad Prism4 software.\nInverted sequence peptides synthesized with all L-amino acids and all D-amino acids were tested for cholesterol efflux activity using ABCA1 expressing J774 macrophages.\nTwo peptide analogs were engineered; the first replacing glutamic acid residues (E) at position 8 and 15 with aspartic acid residues (D), i.e., E8, 15>D polypeptides, and the second, replacing E1, 7, 8, 15, 18, 19 with D, i.e., all D (Asp) polypeptide. Cholesterol efflux activity was determined using J774 macrophages treated with and without a cAMP analog to modulate ABCA1 expression.\nThe impact of the A12>L substitution was also tested for activity, which also expanded non-polar surface area.\n1-palmitoyl-2-oleoyl-phosphatidylcholine (POPC) was used to evaluate the cholesterol efflux properties of a formulated polypeptide of the present invention. […] To test cholesterol efflux activity, J774 mouse macrophages were labeled with [^3H]cholesterol and treated with and without cAMP to modulate ABCA1 expression.", "note": "“Also recorded” adds a separate entry of the source. Where no end group is shown, it is not given here. [ ]: non-standard residue; d: D form."}
{"substance": "22-mer: SEQ ID NO:5 truncated from the C-terminal end to 22 residues (EVRSKLEEWFAAFREFFEEFLA; S1 amphipathic alpha-helix polypeptide core sequence selectively binds HDL, high-affinity ligand for ATP- binding cassette transporter A1 (ABCA1), ABCA1-lipid cholesterol efflux, ABCA1-stablization, anti-oxidant and anti-inflammatory activity)", "values": [{"measurement": "capacity to stimulate cholesterol efflux at 3 μg/ml", "result": "weakly active"}]}
{"substance": "R3>L: SEQ ID NO:4 polypeptides with arginine at position 3 replaced by leucine (EVLSKLEEWFAAFREFAEEFLARLKS; ATI-5261 amphipathic alpha-helix polypeptide core sequence selectively binds HDL, high-affinity ligand for ATP-binding cassette transporter A1 (ABCA1), ABCA1-lipid cholesterol efflux, ABCA1-stablization, anti-oxidant and anti- inflammatory activity)", "values": [{"measurement": "ABCA1-dependent cholesterol efflux", "result": "relatively high-levels of cholesterol efflux"}, {"measurement": "cholesterol efflux from macrophages not induced for ABCA1 (non-specific)", "result": "low-levels of cholesterol efflux"}]}
{"substance": "SKLRALFEEAFERFAAFWEELKSRVE (inverted peptide, ATI-5261 in reverse order)", "values": [{"measurement": "ABCA1-dependent cholesterol efflux at 30 μg/ml", "result": "stimulated cholesterol efflux in an ABCA1-dependent manner"}]}
{"substance": "R3>F: SEQ ID NO:4 polypeptides with arginine at position 3 replaced by phenylalanine (EVFSKLEEWFAAFREFAEEFLARLKS; ATI-5261 amphipathic alpha-helix polypeptide core sequence selectively binds HDL, high-affinity ligand for ATP-binding cassette transporter A1 (ABCA1), ABCA1-lipid cholesterol efflux, ABCA1-stablization, anti-oxidant and anti- inflammatory activity)", "values": [{"measurement": "ABCA1-dependent cholesterol efflux", "result": "relatively high-levels of cholesterol efflux"}, {"measurement": "cholesterol efflux from macrophages not induced for ABCA1 (non-specific)", "result": "low-levels of cholesterol efflux"}]}
{"substance": "18-mer: SEQ ID NO:5 truncated from the C-terminal end to 18 residues (EVRSKLEEWFAAFREFFE; S1 amphipathic alpha-helix polypeptide core sequence selectively binds HDL, high-affinity ligand for ATP- binding cassette transporter A1 (ABCA1), ABCA1-lipid cholesterol efflux, ABCA1-stablization, anti-oxidant and anti-inflammatory activity)", "values": [{"measurement": "capacity to stimulate cholesterol efflux at 3 μg/ml", "result": "weakly active"}]}
{"substance": "R23→Q: SEQ ID NO:5 with arginine 23 replaced by glutamine (EVRSKLEEWFAAFREFFEEFLAQLKS; S1 amphipathic alpha-helix polypeptide core sequence selectively binds HDL, high-affinity ligand for ATP- binding cassette transporter A1 (ABCA1), ABCA1-lipid cholesterol efflux, ABCA1-stablization, anti-oxidant and anti-inflammatory activity)", "values": [{"measurement": "ABCA1-dependent cholesterol efflux at 30 μg/ml", "result": "mediated cholesterol efflux in an ABCA1 dependent manner"}, {"measurement": "efficiency of ABCA1 cholesterol efflux (concentration dependence)", "result": "high efficiency"}]}
{"substance": "A12>L: A12>L substitution analogs of SEQ ID NO:4 (EVRSKLEEWFALFREFAEEFLARLKS; ATI-5261 amphipathic alpha-helix polypeptide core sequence selectively binds HDL, high-affinity ligand for ATP-binding cassette transporter A1 (ABCA1), ABCA1-lipid cholesterol efflux, ABCA1-stablization, anti-oxidant and anti- inflammatory activity)", "values": [{"measurement": "ABCA1-dependent cholesterol efflux", "result": "stimulated cholesterol efflux from macrophages in an ABCA1-dependent manner"}]}
{"substance": "SKLRALFEEAFERFAAFWEELKSRVE ([dS][dK][dL][dR][dA][dL][dF][dE][dE][dA][dF][dE][dR][dF][dA][dA][dF][dW][dE][dE][dL][dK][dS][dR][dV][dE])", "values": [{"measurement": "ABCA1-dependent cholesterol efflux", "result": "stimulate ABCA1 cholesterol efflux in a ABCA1-dependent manner"}]}
{"substance": "R3→Q: SEQ ID NO:5 with arginine 3 replaced by glutamine (EVQSKLEEWFAAFREFFEEFLARLKS; S1 amphipathic alpha-helix polypeptide core sequence selectively binds HDL, high-affinity ligand for ATP- binding cassette transporter A1 (ABCA1), ABCA1-lipid cholesterol efflux, ABCA1-stablization, anti-oxidant and anti-inflammatory activity)", "values": [{"measurement": "ABCA1-dependent cholesterol efflux at 30 μg/ml", "result": "mediated cholesterol efflux in an ABCA1 dependent manner"}, {"measurement": "efficiency of ABCA1 cholesterol efflux (concentration dependence)", "result": "high efficiency"}]}
{"substance": "25-mer: SEQ ID NO:5 lacking the C-terminal Ser26 (EVRSKLEEWFAAFREFFEEFLARLK; S1 amphipathic alpha-helix polypeptide core sequence selectively binds HDL, high-affinity ligand for ATP- binding cassette transporter A1 (ABCA1), ABCA1-lipid cholesterol efflux, ABCA1-stablization, anti-oxidant and anti-inflammatory activity)", "values": [{"measurement": "capacity to stimulate cholesterol efflux at 3 μg/ml", "result": "retained high capacity to stimulate cholesterol efflux; also recorded: retained high activity"}]}
{"substance": "E8, 15>D: SEQ ID NO:5 with glutamic acid at positions 8 and 15 replaced with aspartic acid (EVRSKLEDWFAAFRDFFEEFLARLKS; S1 amphipathic alpha-helix polypeptide core sequence selectively binds HDL, high-affinity ligand for ATP- binding cassette transporter A1 (ABCA1), ABCA1-lipid cholesterol efflux, ABCA1-stablization, anti-oxidant and anti-inflammatory activity)", "values": [{"measurement": "ABCA1-dependent cholesterol efflux", "result": "retained high capacity to stimulate cholesterol efflux in an ABCA1-dependent manner"}]}
{"substance": "R3, 14, 23→K3, 14, 23: SEQ ID NO:5 with lysine in place of arginine at positions 3, 14 and 23 (EVKSKLEEWFAAFKEFFEEFLAKLKS; S1 amphipathic alpha-helix polypeptide core sequence selectively binds HDL, high-affinity ligand for ATP- binding cassette transporter A1 (ABCA1), ABCA1-lipid cholesterol efflux, ABCA1-stablization, anti-oxidant and anti-inflammatory activity)", "values": [{"measurement": "ABCA1-dependent cholesterol efflux", "result": "stimulated ABCA1 cholesterol efflux"}, {"measurement": "cholesterol efflux from macrophages not induced for ABCA1 (non-specific)", "result": "Low efflux"}]}
{"substance": "EFRSKLEEWFAAFREFFEEFLARLKS (S2 amphipathic alpha-helix polypeptide core sequence selectively binds HDL, high-affinity ligand for ATP- binding cassette transporter A1 (ABCA1), ABCA1-lipid cholesterol efflux, ABCA1-stablization, anti-oxidant and anti-inflammatory activity) [SEQ ID NO:6]", "values": [{"measurement": "cholesterol efflux efficiency/potency on per molecule (molar) basis versus apolipoproteins", "setting": "Km in molar units", "result": "activity similar to full-length Apo A-I, Apo E, and the C-terminal (CT) domain of Apo E"}]}
{"substance": "R3, 14, 23→Q3, 14, 23: SEQ ID NO:5 with arginines 3, 14, 23 changed to glutamine (EVQSKLEEWFAAFQEFFEEFLAQLKS; S1 amphipathic alpha-helix polypeptide core sequence selectively binds HDL, high-affinity ligand for ATP- binding cassette transporter A1 (ABCA1), ABCA1-lipid cholesterol efflux, ABCA1-stablization, anti-oxidant and anti-inflammatory activity)", "values": [{"measurement": "efficiency of ABCA1 cholesterol efflux (concentration dependence)", "result": "reduced efflux efficiency"}, {"measurement": "ABCA1-dependent cholesterol efflux", "result": "greatly reduced efflux capacity"}]}
{"substance": "EVRSKLEEWFAAFREFAEEFLARLKS ([dE][dV][dR][dS][dK][dL][dE][dE][dW][dF][dA][dA][dF][dR][dE][dF][dA][dE][dE][dF][dL][dA][dR][dL][dK][dS])", "values": [{"measurement": "ABCA1-dependent cholesterol efflux", "result": "promoted ABCA1 cholesterol efflux"}, {"measurement": "ABCA1-dependent cholesterol efflux", "setting": "listed as D-amino acid analog of SEQ ID NO:4", "result": "stimulate ABCA1 cholesterol efflux in a ABCA1-dependent manner"}]}
